Assay results: paper doi:10.1101/2023.08.15.553295 (bioRxiv, 2023)
Ends that are not written are not given here.

B1: NanoLuc-MAGEA3 full length (natural protein)
chain: MPLEQRSQHCKPEEGLEARGEALGLVGAQAPATEEQEAASSSSTLVEVTLGEVPAAESPDPPQSPQGASSLPTTMNYPLWSQSYEDSSNQEEEGPSTFPDLESEFQAALSRKVAELVHFLLLKYRAREPVTKAEMLGSVVGNWQYFFPVIFSKASSSLQLVFGIELMEVDPIGHLYIFATCLGLSYDGLLGDNQIMPKAGLLIIVLAIIAREGDCAPEEKIWEELSVLEVFEGREDSILGDPKKLLTQHFVQENYLEYRQVPGSDPACYEFLWGPRALVETSYVKVLHHMVKISGGPHISYPPLHEWVLREGEE

Assays:
[1] = molecular target: biotinylated DCAF12 (Δ1-78) (human, UniProt Q5T6F0 79-453, biotin); experiment: SPR
[2] = molecular target: T1, DCAF12 (Δ1-78) (human, UniProt Q5T6F0 79-453); experiment: fluorescence polarisation
[3] = molecular target: T1, DCAF12 (Δ1-78); experiment: fluorescence polarisation; remark: listed apart in the source
[4] = molecular target: HaloTag-DCAF12 wild type (human, UniProt Q5T6F0 1-453); experiment: FRET or BRET
HaloTag-DCAF12 wild type, sequence (Q5T6F0 whole entry): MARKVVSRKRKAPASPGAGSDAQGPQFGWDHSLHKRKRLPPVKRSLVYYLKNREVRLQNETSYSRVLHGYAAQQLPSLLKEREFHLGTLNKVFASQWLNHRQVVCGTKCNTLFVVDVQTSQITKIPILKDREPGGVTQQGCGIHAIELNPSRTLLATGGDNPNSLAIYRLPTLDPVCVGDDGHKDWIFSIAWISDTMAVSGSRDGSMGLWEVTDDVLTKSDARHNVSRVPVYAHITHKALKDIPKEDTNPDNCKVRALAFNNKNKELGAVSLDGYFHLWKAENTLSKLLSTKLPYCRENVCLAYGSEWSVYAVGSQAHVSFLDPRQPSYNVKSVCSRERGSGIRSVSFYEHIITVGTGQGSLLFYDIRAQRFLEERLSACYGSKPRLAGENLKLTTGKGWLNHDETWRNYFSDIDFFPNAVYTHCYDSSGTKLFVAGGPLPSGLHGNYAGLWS

T1 sequence (Q5T6F0 79-453, stated change not applied): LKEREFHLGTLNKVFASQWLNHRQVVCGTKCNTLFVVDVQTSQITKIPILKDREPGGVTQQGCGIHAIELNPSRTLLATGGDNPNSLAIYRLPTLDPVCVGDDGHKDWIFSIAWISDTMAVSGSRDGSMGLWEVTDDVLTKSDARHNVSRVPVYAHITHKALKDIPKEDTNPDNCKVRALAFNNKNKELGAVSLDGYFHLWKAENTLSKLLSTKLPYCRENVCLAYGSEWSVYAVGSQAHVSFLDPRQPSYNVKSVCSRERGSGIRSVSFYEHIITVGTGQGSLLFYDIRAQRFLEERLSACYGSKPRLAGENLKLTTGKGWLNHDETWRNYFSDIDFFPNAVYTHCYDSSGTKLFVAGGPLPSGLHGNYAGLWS
biotinylated DCAF12 (Δ1-78), sequence (Q5T6F0 79-453, stated change not applied): as above

| Binder | binding result [1] | binding result [2] | Kd [3] [nM] | BRET signal, fold over the negative control [4] [fold] |
| --- | --- | --- | --- | --- |
| IRKPGESEE [unlabeled CCT5 C-terminal degron peptide] | binds | binds | – | – |
| LHEWVLREGEE (also: FITC label, position not given here) [FITC-labeled MAGEA3 C-terminal degron peptide] | – | – | < 370 | – |
| LHEWVLREGEE [unlabeled MAGEA3 C-terminal degron peptide] | binds | binds | – | – |
| IRKPGESEE (also: FITC label, position not given here) [FITC-labeled CCT5 C-terminal degron peptide] | – | – | < 370 | – |
| B1 | – | – | – | 22 |
